Results taken from the DeepSol protein solubility set.

Assay: soluble on expression in E. coli; label from the status in PepcDB or PDB records
In the case of “MSSTQTDYRLSDDLLGPVLAILDAYIDPYLAKGLVSAGCVNKLAIEGKRLQLGLVYPYPCMTQYRDTVMALTNKLAVLDAIDEVECEIDFQPKVYSAIASIAPIANVKQVIAVASGKGGVGKSTTAVNLALALAAEGAQVGILDADIYGPSVPLMLGIPNFRPVSPDGKHMTAASAYGIAAQSIGFMLSGDEAAVWRGPMAAGALAQLLNETQWPELDYLVVDMPPGTGDIQLTLSQKVPVSGAVIVTTPQDIALADAKKGITMFQKVNIPVLGIVENMSFHLCPECGHKEHPFGTHGGSKMAERYQVPLLGALPLHINIREAMDVGAPTVVAEPDSEVAALYREIARKVGAELALKQSQKTVSISVSDDELEHHHHHH”, the “soluble on expression in E. coli” value is reported as “soluble”. With “MNRILIVEDEKNLARFIELELQHENYETAVANDGRAGLELALNEEWDAILLDLMLPHLNGVEVCRRVRQVKQTPIIMITARDSVIDRVSGLDHGADDYIVKPFAIEELLARLRSLLRRVENAEQSAKQTTLQYRNLIVEKENRIVKRDEEIIDLTKREYELLLTLMENVNIVLTREVLLNKVWGYETEVETNVVDVYVRYLRNKIDHPDEESYIQTVRGTGYVMRT” the “soluble on expression in E. coli” value was “not soluble”. In the case of “MKGRWAKYVATGVMLAMLAACSSKPTDRGQQYKDGKFTQPFSLVNQPDAVGAPINAGDFAEQVDQIRSASPRLYTNQSNVYNAVQNWLRSGGDTRTMRQFGIDAWQMEGTDNYGNVQFTGYYTPVVQARHTRQGAFQYPIYSMPPKRGRLPSRAQIYAGALSDKYILAWSNSLMDNFIMDVQGSGYIDFGDGSPLNFFSYAGKNGWPYRSIGKVLIDRGEVKKEDMSMQAIREWGEKHSEAEVRELLEQNPSFVFFKPQSFAPVKGASAVPLIGRASVASDRSIIPPGTTLLAEVPLLDNNGKFSGQYELRLMVALDVGGAIKGQHFDIYQGIGPDAGHRAGWYNHYGRVWVLKSAPGAGNVFSG”, the “soluble on expression in E. coli” value is reported as “soluble”. In the case of “MSLQVEGLSINLATIREQCGFAEAVDVCLKHGITAIAPWRDQVAAIGLEEASRIVRSNGLKLTGLCRGGFFPAPDAAGREKAIDDNKRAVDEAAELGADCLVLVVGGLPGGSKNIDAARSMVLEGIAAVLPHARAAGVPLAIEPLHPMYAADRACVNTLGQALDICEALGPGVGAAIDVYHVWWDPDLNEQIARAGRMKAILAHHICDWLVPTKDMLTDRGMMGDGVIDLKAIRREVEAAGFHGAQEVEIFSADNWWKRPAEEVIATCVERYRSCCRDDEGHHHHHH”, the “soluble on expression in E. coli” value is reported as “soluble”. For “MAHHHHHHMIIEKGEPLNKEIIDHVLDHVTEFPTPTMVSVGDGKADCIVLENFLTHEECDQLVAACEKVGYTFWLQKNHHDADGEATCDSGSKAVRVVDTIEANFPHLSAKLYERIARVVSLKPKCFSEDMPNAEELFERELAGTWVPHALSENLLFGRYHPGGHFMPHVDGATILDLNTRSFYTLLIYLNDCLHGGETFIFAGEQCNVMYLDEKENQYRGNATQRVGAVYPKKGSAAFFYYNLLHEGAPVLEGHKYICRADLLYHRTPTIFTSEADEKAFKAYQEARLAESHGDAERACQLFQRVRKLSKGVASIFQIE”, the “soluble on expression in E. coli” value was “soluble”. In the case of “GPMGMQSIREQSCRVVTCKTCKYTHFKPKETCVSENHDFHWHNGVKRFFKCPCGNRTISLDRLPKKHCSTCGLFKWERVGMLKEKTGPKLGG”, the “soluble on expression in E. coli” value is reported as “soluble”. In the case of “MDHENLMKYLEEFRSIRFQPDFQKVDAERNVRYCEITDFPISNISFELLETGVSQQWRNCDQNLFNEYLKTYKNGGYSQFEDLLFKIWGYSEEKERFDLPALKSFYRKMSEIVGEDEVLEKLARLVRITKSACEVLPEKIYRLVGDIESATFSHIQCASLIAWMFFSDTPRLSFIIILQKTTCVAVEKLKFLFTYFDKMSIDPPIGAVSFRKMRITHKQYLENWKLRETNLLPDVQVFDKMSIEETALCTQIDFANKRLGGGVLKGGAVQEEIRFMMCPEMMVAILLNDVTQDLEAISIVGAYVFSSYTGYSNTLKWAKITPKHSAQNNNSFRDQFGRLQTETVAIDAVRNAGTPLECLLNQLTTEKLTREVRKAAIGFLSAGDGFSKIPVVSGWWGCGAFRGNKPLKFLIQVIACGISDRPLQFCTFGDTELAKKCEEMMTLFRNNNVRTGQLFLIINSIGPPLNYSEQYVFDAIRAKINSTKA”, the “soluble on expression in E. coli” value is reported as “not soluble”. In the case of “MRTVVVIPTYNERDTIERLINDVLAQDKDIHVLVVDDNSPDGTGEIVDRLSEGKGRVHVLHRPGKMGLGSAYRQGFAAALAMDADFIVEMDADYSHDPATLPRFLEAMEGCDLVIGSRYLNGISVVNWPLRRLMLSYFANWYTRLITGLRIMDCTSGFKCFRRRVIESIDMSTIRSDGYSFQIEMNYRCVEKGFQVREIPIIFIDRRSGSSKMSKKIVREAVFMVWKLKLGSVFGALFRLEHHHHHH”, the “soluble on expression in E. coli” value is reported as “not soluble”. In the case of “MPSDLIPLIELHQVSKTFGKPVAEHSLQGLLQRLHLTRPKPVTHAVDRVDLRIMRGEVVGLVGESGCGKSTLGRMVAGLLPVSSGVASVDGKPLDSLTTQERKALRLKVQMIFQDPSSSLNPRLRVDRIVGEGALLHGLTDRKGADDYVSAQLQRAGLNPQLRQRYPHQFSGGQRQRIGIARALAVQPELLVCDESVAALDVSIQAQILNLFMDLRDELGLTYLFISHDLGVVEHLCDRVVVMYLGRVVETASVDDLFARANHPYTQALLAQIPRFDIRSTRYDAIQGEIPSPLNPPTGCHFHPRCPHAMARCREEVPALREVSPNHQSACHLNDQR”, the “soluble on expression in E. coli” value is reported as “not soluble”. In the case of “MGSDKIHHHHHHMNIQQLRYVVAIANNGTFREAASKLFVSQPSLSVSIKDLEAELGFQIFNRTTSGTVLTSQGLVFYEKALEVVKSFDSFEKTFSQADLDQNEFSIASQHYDFLPPLITAFSQQYDGHRVFRIFESTTIQILDEVAQGNSEIGIIYLNVDNQKGLFQRMDKLGLEYVSLIPFTTHIYLSKTHPLANREALYLNDIQGLPAVRFTQERDEYLYYSENFVDTSECPRIYNVSDRATLNGILERTNAFATGSGFLDHRSVNGIKVIPLADHIDNQMIYVKRKDKNLSVAGATFVTILKDYFDKRRKALT”, the “soluble on expression in E. coli” value is reported as “not soluble”. For “SKGYFETNRIQHIIVDEAQNFHTEDGNWCEKAKGITQGGKACPRMFWIFLDYFQTSHLKESGLPDFELQYPKEELTQVVRNGDKIAEFLQQELGKIRDNPPCSIPRASLNIVHEFKWSQSISGTLKIKYLTSEKMVSYVANKCDVFLSKGYSPQDIAVLFSTDREKKAYEHMFLREMRKKRRASQMNDTSVCHSNMFDRIRRFSGLERSIVFGINPIATEQPISHNLLICLASRAMKYLYILYALTPEGQSSTVAC”, the “soluble on expression in E. coli” value was “soluble”. With “MVKIAIITYSTYGHIDVLAQAVKKGVEAAGGKADIYRVEETLPDEVLTKMNAPQKPEDIPVATEKTLLEYDAFLFGVPTRFGNLPAQWSAFWDKTGGLWAKGSLNGKAAGIFVSTSSYGGGQESTVKACLSYLAHHGIIFLPLGYKNSFAELASIEEVHGGSPWGAGTLAGPDGSRTASPLELRIAEIQGKTFYETAKKLFPAKEAKPSTEKKTTTSDAAKRQTKPAAATTAEKKEDKGLLSCCTVM” the “soluble on expression in E. coli” value was “soluble”. In the case of “MGSDKIHHHHHHMAEFTHLVNERRSASNFLSGHPITKEDLNEMFELVALAPSAFNLQHTKYVTVLDQDVKEKLKQAANGQYKVVSSSAVLLVLGDKQAYQQAADIYEGLKVLGILNKQEYDHMVQDTVSFYENRGEQFKRDEAIRNASLSAMMFMLSAAAAGWDTCPMIGFDAEAVKRILNIDDQFEVVMMITIGKEKTESRRPRGYRKPVNEFVEYM”, the “soluble on expression in E. coli” value is reported as “soluble”. With “MICNNQREFDNSLKCYQTALVTSQWTVRIRNLNWVLQEKVKSLYVEYQIWRGIDQTNKANPNTLRTNLDQVLAQLETFPTASASPIDSGSAGQLTPFHRSHFHPYKDNKRMRFPSNKEGGLCNSLLSSHYEWC” the “soluble on expression in E. coli” value was “not soluble”. With “MGSDKIHHHHHHMRRKIPSTAALICFEAAARNESFTKAAQELALTQGAVCRQIGGLEAFLNVELFRRSRRGVRLTEAGLSYSRQVAAQLDAVERDTLSVMRQQGANVIELAVVPTFGTQWLLPRLKDFQQRHPEVTVNLTNRTRPFLFADTTFDAAIYFGDADWSGTQSHQLMGENPVPVCSPALLNGQGMLEARHIAQLPLLQQSTRPYAWRQWFGSVGMNVERDMTGPRYELFSMLAQAAMHDMGIALIPPFLIQRELEEGRLVVANRHALSSDKAYYLMIPERKVESASLRAFRDWLVSQAQAYINSSGTNAAN” the “soluble on expression in E. coli” value was “not soluble”. In the case of “MGSDKIHHHHHHMNRYLIIARVGDNSLHPTWINSEKRNFDLFISYFGNEEKKYSEHADYYEHMKGGKWPIISRLIDKNWEIISKYDAVWFPDDDLLVDTNSICKMFDLFSAFDLSLAQPALSMDSYFSHPCLLQQKKSIIRFTNFVEVMAPIFSLSSLERVKHTFSQSKSGWGLDFLWPHMINGKIGIIDVTPVIHTRPIGGELYKLNPELSPKMDIVKLQEIYPDIILNKKYKKNKFKVFSQILETRTLNEKMAYFKGKVQVALAKKVSKETKKYGA”, the “soluble on expression in E. coli” value is reported as “not soluble”. In the case of “MNNTPKLKLGIVAVSRDCFPMELSENRRKAVVDAYNGEIFECLTTVENEKDMRKALKEVKSAGVNALVVYLGNFGPETPETLIAKEFDGPVMFAAAAEERGDNLVNGRGDAYCGMLNASYNLALRNINAYIPEYPVGTASDVANMINEFVPVATALIGLKNLKIISFGPRPQDFLACNAPIKQLYNLGVEIEENSELDLFASFNEHENDSRIPDVVKDMEEELGEGNKMPGILPKLAQYELTLLDWAEEHKGSREYVVFANKCWPAFQTQFGCVPCYVNSRLTARGIPVSCEVDIYGALSEYIGTCVSQDVVTLLDINNTVPKDMYESEIKSKFNYTLKDTFMGFHCGNTAACKLTSGTMKNQMIMARALEPNQEPNITRGTLEGDIVPGEITFFRLQSNADSELTAYVAEGEVLPVKTRSFGSIGVFAIPQMGRFYRHVLIENRFPHHGAVAFGHFGKAIYNLFRYLGVKEVGFNRPKEMLYKTENPFELEHHHHHH”, the “soluble on expression in E. coli” value is reported as “soluble”. For “MSNVLIINAMKEFAHSKGALNLTLTNVAADFLRESGHQVKITTVDQGYDIESEIENYLWADTIIYQMPAWWMGEPWILKKYIDEVFTDGHGRLYQSDGRTRSDATKGYGSGGLIQGKTYMLSVTWNAPREAFTDPEQFFHGVGVDGVYLPFHKANQFLGMKPLPTFMCNDVIKQPDIEGDIARYRQHLAENVNS”, the “soluble on expression in E. coli” value was “not soluble”. For “MFFVSLLFEFFDSIFEIAVMLGFEMLCRMAADSSVLHCLVAAYMGLGKLPATTEKHTYAQQDKSQSDQQKRSQKNCSHLLLYLRNTKVRFSYPQRSTINNS”, the “soluble on expression in E. coli” value was “not soluble”. For “MNMTIFIVFVICLSCVSLSLGTETCPPLTTIKPPDDIQKSLFYPSNWNDDLPTPNFAAGQKCSFKVIGPVVPQIRTVHAKSPPLALNAMSSTNPIVVKSDTHVSFLPIPQNYNYLDPILRSVQVYDGPTIDSTHLGTLYQAIASNNSLVSSGKYLTFYSLSWYYSVRNIVILQDYSDIQNYASYQAFTCHNSCGVSLDASKGTAAVLLFNSLSFVNQLSMSDNNSTLSVYTNSISDDNKLSDYSYSNSQTNIPQKFVGNYTIFVLDKGQANLSLKTYTPNNAWWSYVFYGQRGFFASPNFGTSDSDQNLCDAVSINGKHPAKITYTVDRSAIVGPAVLTVSIGGNITIYDVTNLPGPDPISAIGMSIAVNYESNGVISTGAFVSFEFQKSATSNGILFTIVLTICMAIFF”, the “soluble on expression in E. coli” value was “not soluble”. For “MAETSNASAEPELIYFEVTSNEERFVHMVFQMASNTTNQFLIFVKDDETCFRAQRALYSSGEMTQCFLKNMNKDAFKKRKQELKNGTAKVWIADRSVIGKLVDCFSKELTVFLYDGISNDFPKQAVGKCHSVISLKQSRHTAVNTSDGLFEQVFHICQLYNATFTSPIKDWMASSKNGDLPENADTMKLVIARPSELLNSASTLRSFNDIVAKDPRILNLMEAFKVIENKARIDKDDNSRGMLYLCVKMRSELDGQYVTKNKADQFYRVEFNTLKNMKNKSEFLRKMCPS”, the “soluble on expression in E. coli” value was “not soluble”.
